Columns and labels:
[1] = target: Recombinant human TNF-alpha (human) (UniProt P01375); experiment: ELISA of unbound rhTNF-alpha after pre-incubation; preparation 1; printed as 7.948e-009 g/ml; conditions: Fc fusion
[2] = target: Recombinant human TNF-alpha (human) (UniProt P01375); experiment: ELISA of unbound rhTNF-alpha after pre-incubation; preparation 2; printed as 4.220e-009 g/ml; conditions: Fc fusion

Sequence of Recombinant human TNF-alpha (human) (P01375 77-233): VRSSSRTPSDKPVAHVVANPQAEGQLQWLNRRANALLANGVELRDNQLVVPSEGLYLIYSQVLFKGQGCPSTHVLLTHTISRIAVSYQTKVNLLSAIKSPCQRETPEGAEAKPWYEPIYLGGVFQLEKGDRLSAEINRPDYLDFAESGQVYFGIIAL

- IC50 [1]: 7.95 ng/mL
- IC50 [2]: 4.22 ng/mL
Substance: PEG20-etanercept (5 eq)

Reference: patent US20140030278A1
